# Measured values as given in PMC3702667 (Nature structural & molecular biology, 2013).
# B1: RECQL5 IRI domain (residues 490–620) (domain or fragment)
# chain: GSGDEGRDEAHKREWNLFYQKQMQLRKGKDPKIEEFVPPDENCPLKEASSRRIPRLTVKAREHCLRLLEEALSSNRQSTRTADEADLRAKAVELEHETFRNAKVANLYKASVLKKVADIHRASKDGQPYDM
# B2: GST–RECQL5_(490–620) (domain or fragment)
# chain: GSGDEGRDEAHKREWNLFYQKQMQLRKGKDPKIEEFVPPDENCPLKEASSRRIPRLTVKAREHCLRLLEEALSSNRQSTRTADEADLRAKAVELEHETFRNAKVANLYKASVLKKVADIHRASKDGQPYDM
# B3: untagged recombinant Rpb1_(1168–1302) (domain or fragment)
# chain: not shown
# B4: GST–tagged Rpb1_(1168–1302) (domain or fragment)
# chain: not shown
# Tests used:
# Assay in all cases: pull-down
# [1] = biological target: B4
# [2] = biological target: B3
# GST–fused RECQL5_(1–620) = GST–fused RECQL5_(1–620) (human, UniProt O94762 1-620)
# RECQL5_(1–620) = RECQL5_(1–620) (human, UniProt O94762 1-620)
binder,measurement,setting,value
B1,binding result,[1],binds
B2,binding result,[2],binds
B3,binding result,GST–fused RECQL5_(1–620),binds
B4,binding result,RECQL5_(1–620),binds
